Common to all, as to test: purified protein
Holding throughout (settings): 50 mM HEPES pH 7.5, 250 mM NaCl, 100 µM ZnCl2, 37 °C, BSA 20 µg/mL in dilution buffer

Data set [1] concerns CC(C)(O/N=C(\C(=O)N[C@@H]1C(=O)N2C(C(=O)[O-])=C(C[n+]3ccccc3)CS[C@H]12)c1csc(N)n1)C(=O)O.
Data set [2] has as its system C[C@@H](O)[C@H]1C(=O)N2C(C(=O)O)=C(SCCN=CN)C[C@H]12.
The subject of data set [3] is CO/N=C(\C(=O)N[C@@H]1C(=O)N2C(C(=O)[O-])=C(C[N+]3(C)CCCC3)CS[C@H]12)c1csc(N)n1.
The test system of data set [4] is CO/N=C(\C(=O)N[C@@H]1C(=O)N2C(C(=O)O)=C(COC(C)=O)CS[C@H]12)c1csc(N)n1.
Data set [5] concerns C[C@@H](O)[C@H]1C(=O)N2C(C(=O)O)=C(S[C@@H]3CN[C@H](C(=O)N(C)C)C3)[C@H](C)[C@H]12.

Results on one substance are retold here after article PMC12363196, “High level of carbapenem resistance and transmission ability of blaIMP-26 in multidrug-resistant Enterobacter xiangfangensis isolates from China” (mSystems, 2025).

Usually Km stands for the concentration of substrate that gives half-maximal velocity. As a reminder, the kcat is the number of substrate molecules converted per active site and unit of time at saturation. For orientation: kcat/Km means the turnover number divided by the Michaelis constant. For the substance IMP-26 (Pseudomonas aeruginosa), the Km in data set [1] was found to be 677.2 µM; in data set [2], 932.6 µM; in data set [3], 497.1 µM; in data set [4], 192.1 µM; in data set [5], 218.8 µM. In addition, the kcat in data set [1] is 38.86 s⁻¹; in data set [2] it was 159.51 s⁻¹; in data set [3], 37.58 s⁻¹; in data set [4] it was 31.92 s⁻¹; in data set [5], 75.08 s⁻¹. Further, the kcat/Km in data set [1] came to 57000 M⁻¹ s⁻¹; in data set [2], 171000 M⁻¹ s⁻¹; in data set [3], 76000 M⁻¹ s⁻¹; in data set [4], 166000 M⁻¹ s⁻¹; in data set [5] it was 343000 M⁻¹ s⁻¹.
